Common to all, as to parameters: EC50 of β-arrestin-1 recruitment to the receptor (NanoBiT, HEK293T, agonist mode) (M (inferred, not given)) / EC50 of β-arrestin-1 recruitment to CCR3 (NanoBiT, HEK293T, agonist mode) (M (inferred, not given)) / EC50 of β-arrestin-1 recruitment to CCR5 (NanoBiT, HEK293T, agonist mode) (M (inferred, not given)): unit not given beside the values
(In general: Recruitment of arrestin is a read-out of receptor activation apart from second messengers.)

Assay [1] concerns the target WT CCR5 C-terminally fused to SmBiT (human) (UniProt P51681).
For assay [2], the target named is T1, human CCR10 on Ready-to-Assay Chem-1 cells (human) (UniProt P46092).
T1 sequence: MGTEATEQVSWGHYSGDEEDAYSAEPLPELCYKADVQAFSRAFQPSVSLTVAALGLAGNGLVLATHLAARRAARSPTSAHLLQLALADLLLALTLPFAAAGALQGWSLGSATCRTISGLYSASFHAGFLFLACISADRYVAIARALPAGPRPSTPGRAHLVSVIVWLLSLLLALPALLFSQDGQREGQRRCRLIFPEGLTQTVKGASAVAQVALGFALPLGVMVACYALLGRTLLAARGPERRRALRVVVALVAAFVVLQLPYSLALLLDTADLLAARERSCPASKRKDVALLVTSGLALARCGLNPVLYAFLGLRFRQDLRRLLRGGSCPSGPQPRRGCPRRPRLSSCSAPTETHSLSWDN

Assay [3] has as its target T2, human CCR3 on Ready-to-Assay Chem-1 cells (human) (UniProt P51677).
T2 sequence: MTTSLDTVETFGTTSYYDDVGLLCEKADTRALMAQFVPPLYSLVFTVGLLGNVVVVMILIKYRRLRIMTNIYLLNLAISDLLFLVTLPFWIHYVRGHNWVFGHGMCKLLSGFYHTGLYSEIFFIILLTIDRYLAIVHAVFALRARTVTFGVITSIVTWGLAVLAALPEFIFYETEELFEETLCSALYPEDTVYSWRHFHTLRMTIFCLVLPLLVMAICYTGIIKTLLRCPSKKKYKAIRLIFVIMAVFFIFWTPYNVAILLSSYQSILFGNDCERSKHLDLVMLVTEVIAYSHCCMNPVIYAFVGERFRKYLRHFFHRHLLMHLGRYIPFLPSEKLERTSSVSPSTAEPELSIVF

In assay [4] the target is WT CXCR4 C-terminally fused to SmBiT (human) (UniProt P61073).
Assay [5] has as its target T3, WT CCR3 C-terminally fused to SmBiT (human) (UniProt P51677).
T3 sequence: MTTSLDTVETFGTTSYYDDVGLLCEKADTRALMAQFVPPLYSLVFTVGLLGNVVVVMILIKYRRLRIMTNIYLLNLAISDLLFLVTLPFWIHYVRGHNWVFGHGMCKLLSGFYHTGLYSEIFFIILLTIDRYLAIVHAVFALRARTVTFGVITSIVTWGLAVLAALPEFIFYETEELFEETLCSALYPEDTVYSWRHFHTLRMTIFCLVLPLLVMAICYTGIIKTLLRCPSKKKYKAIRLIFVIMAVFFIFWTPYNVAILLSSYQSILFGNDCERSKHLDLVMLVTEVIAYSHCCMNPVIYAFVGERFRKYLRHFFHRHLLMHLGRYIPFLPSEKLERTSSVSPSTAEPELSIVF

18 molecules from PMC12435897 can be followed below.

In turn, “CCL3 (from UniProt P10147 24-92) (ligand; in M (unit assumed))” displayed an EC50 of β-arrestin-1 recruitment to the receptor (NanoBiT, HEK293T, agonist mode) (M (inferred, not given)) in assay [1] of 4.12e-08.

Molecule “CCL4 (from UniProt P13236 24-92) (ligand; in M (unit assumed))” had an EC50 of β-arrestin-1 recruitment to the receptor (NanoBiT, HEK293T, agonist mode) (M (inferred, not given)) in assay [1] of 1.45e-07.

In turn, “CCL5 (from UniProt P13501 24-91) (ligand)” returned a β-arrestin-1 recruitment to the receptor (NanoBiT, HEK293T, agonist mode): mean peak activity, no single EC50 (fold untreated) in assay [1] of 16.5.

For the molecule CCL28 ∆1 (∆S) (ligand), the EC50 of calcium flux in Chem-1 cells expressing the receptor (row labelled WT CCR3 in the sheet, taken as CCR10) in assay [2] amounted to 170 nM.

Regarding “CCL28 ∆1 (∆S) (ligand; in M (unit assumed))”, the EC50 of calcium flux in Chem-1 cells expressing the receptor (M (inferred, not given)) in assay [3] stood at 1.72e-07.

For CCL28 ∆2 (∆SE) (ligand), the EC50 of calcium flux in Chem-1 cells expressing the receptor (row labelled WT CCR3 in the sheet, taken as CCR10) in assay [2] came to 29 nM.

As for “CCL28 ∆2 (∆SE) (ligand; in M (unit assumed))”, the EC50 of calcium flux in Chem-1 cells expressing the receptor (M (inferred, not given)) in assay [3] was determined as 5.46e-08.

On to CCL28 ∆3 (∆SEA) (ligand), for which the EC50 of calcium flux in Chem-1 cells expressing the receptor (row labelled WT CCR3 in the sheet, taken as CCR10) in assay [2] was found to be 32 nM.

For the molecule “CCL28 ∆3 (∆SEA) (ligand; in M (unit assumed))”, the EC50 of calcium flux in Chem-1 cells expressing the receptor (M (inferred, not given)) in assay [3] was 5.22e-08.

Turning to CCL28 ∆4 (∆SEAI) (ligand), the EC50 of calcium flux in Chem-1 cells expressing the receptor (row labelled WT CCR3 in the sheet, taken as CCR10) in assay [2] came out at 390 nM.

In the case of “CCL28 ∆4 (∆SEAI) (ligand; in M (unit assumed))”, in assay [3], the EC50 of calcium flux in Chem-1 cells expressing the receptor (M (inferred, not given)) was determined as 2.79e-08.

In turn, “CXCL12 (from UniProt P48061 22-93) (ligand)” had an EC50 of β-arrestin-1 recruitment to the receptor (NanoBiT, HEK293T, agonist mode) in assay [4] of 1.41 nM.

In assay [5], vMIP-II K10T (ligand) returned an EC50 of β-arrestin-1 recruitment to CCR3 (NanoBiT, HEK293T, agonist mode) (M (inferred, not given)) of 5.84e-10.

As for vMIP-II L13F (ligand), the EC50 of β-arrestin-1 recruitment to CCR3 (NanoBiT, HEK293T, agonist mode) (M (inferred, not given)) in assay [5] worked out at 5.34e-10.

On to vMIP-II R7I (ligand), for which, in assay [5], the EC50 of β-arrestin-1 recruitment to CCR3 (NanoBiT, HEK293T, agonist mode) (M (inferred, not given)) was 3.79e-10.

The molecule vMIP-II R7I/K10T/L13F (ligand) registered an EC50 of β-arrestin-1 recruitment to CCR3 (NanoBiT, HEK293T, agonist mode) (M (inferred, not given)) in assay [5] of 1.11e-09. Also, the EC50 of β-arrestin-1 recruitment to CCR5 (NanoBiT, HEK293T, agonist mode) (M (inferred, not given)) in assay [1] turned out to be 1.08e-07.

B1: WT CCL28 (ligand)
chain: SEAILPIASSCCTEVSHHISRRLLERVNMCRIQRADGDCDLAAVILHVKRRRICVSPHNHTVKQWMKVQAAKKNGKGNVCHRKKHHGKRNSNRAHQGKHETYGHKTPY
Consider B1, for which the EC50 of calcium flux in Chem-1 cells expressing the receptor (row labelled WT CCR3 in the sheet, taken as CCR10) in assay [2] is 230 nM. Also, the EC50 of calcium flux in Chem-1 cells expressing the receptor (M (inferred, not given)) in assay [3] amounted to 1.42e-07.

B2: viral macrophage inflammatory protein II (vMIP-II) (ligand)
chain: GDTLGASWHRPDKCCLGYQKRPLPQVLLSSWYPTSQLCSKPGVIFLTKRGRQVCADKSKDWVKKLMQQLPVTAR
In assay [5], B2 yielded an EC50 of β-arrestin-1 recruitment to CCR3 (NanoBiT, HEK293T, agonist mode) (M (inferred, not given)) of 1.35e-09.
